T1: ProtA-tagged GLABRA3 (GL3) (Arabidopsis thaliana, UniProt Q9FN69 1-637)
T1 construct: GLABRA3 (GL3), basic helix-loop-helix (bHLH)-like transcription factor, Arabidopsis thaliana; Backbone pTREXdest30; The results write 'GL3-ProtA', but the methods say that the tag is fused to the N-terminus; also called GL3-ProtA; ProtA-tagged GL3; source: HEK293TM cells, transiently expressed, in lysate; not shown: Staphylococcus aureus protein A, N-terminal, kept
T1 sequence (looked up): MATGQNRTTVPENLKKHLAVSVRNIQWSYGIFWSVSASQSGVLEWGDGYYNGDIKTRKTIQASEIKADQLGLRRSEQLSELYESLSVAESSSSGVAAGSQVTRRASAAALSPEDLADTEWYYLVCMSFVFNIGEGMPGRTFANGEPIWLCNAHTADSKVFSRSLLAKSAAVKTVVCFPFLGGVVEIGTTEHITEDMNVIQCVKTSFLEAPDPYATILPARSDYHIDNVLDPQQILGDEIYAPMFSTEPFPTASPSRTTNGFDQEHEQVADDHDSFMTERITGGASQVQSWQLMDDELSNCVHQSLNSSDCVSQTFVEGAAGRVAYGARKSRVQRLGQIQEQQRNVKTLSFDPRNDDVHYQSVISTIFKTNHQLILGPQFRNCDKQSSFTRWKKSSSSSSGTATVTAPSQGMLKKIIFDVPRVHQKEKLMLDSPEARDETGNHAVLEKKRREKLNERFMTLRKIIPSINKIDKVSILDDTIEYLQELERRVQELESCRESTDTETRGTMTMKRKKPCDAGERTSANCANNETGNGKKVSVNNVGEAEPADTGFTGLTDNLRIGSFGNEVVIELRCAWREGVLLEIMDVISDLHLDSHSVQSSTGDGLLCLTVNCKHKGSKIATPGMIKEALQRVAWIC

B1: Renilla-tagged TRANSPARENT TESTA GLABRA1 (TTG1) (natural protein, Arabidopsis thaliana, UniProt Q9XGN1 1-341, looked up)
chain: MDNSAPDSLSRSETAVTYDSPYPLYAMAFSSLRSSSGHRIAVGSFLEDYNNRIDILSFDSDSMTVKPLPNLSFEHPYPPTKLMFSPPSLRRPSSGDLLASSGDFLRLWEINEDSSTVEPISVLNNSKTSEFCAPLTSFDWNDVEPKRLGTCSIDTTCTIWDIEKSVVETQLIAHDKEVHDIAWGEARVFASVSADGSVRIFDLRDKEHSTIIYESPQPDTPLLRLAWNKQDLRYMATILMDSNKVVILDIRSPTMPVAELERHQASVNAIAWAPQSCKHICSGGDDTQALIWELPTVAGPNGIDPMSVYSAGSEINQLQWSSSQPDWIGIAFANKMQLLRV
notes: TRANSPARENT TESTA GLABRA1 (TTG1), WD40 protein, Arabidopsis thaliana; Backbone pTREXdest30; also called TTG1-Renilla; Renilla-tagged TTG1; source: HEK293TM cells, transiently expressed, in lysate; not shown: Renilla reniformis luciferase (Rluc), N-terminal, kept
B2: Renilla-tagged TRIPTYCHON (TRY) (natural protein, Arabidopsis thaliana, UniProt Q8GV05 1-106, looked up)
chain: MDNTDRRRRRKQHKIALHDSEEVSSIEWEFINMTEQEEDLIFRMYRLVGDRWDLIAGRVPGRQPEEIERYWIMRNSEGFADKRRQLHSSSHKHTKPHRPRFSIYPS
notes: TRIPTYCHON (TRY), R3MYB, Arabidopsis thaliana; Backbone pTREXdest30; also called TRY-Renilla; source: HEK293TM cells, transiently expressed, in lysate; not shown: Renilla reniformis luciferase (Rluc), N-terminal, kept
B3: Renilla-tagged CAPRICE (CPC) (natural protein, Arabidopsis thaliana, UniProt O22059 1-94, looked up)
chain: MFRSDKAEKMDKRRRRQSKAKASCSEEVSSIEWEAVKMSEEEEDLISRMYKLVGDRWELIAGRIPGRTPEEIERYWLMKHGVVFANRRRDFFRK
notes: CAPRICE (CPC), R3MYB, Arabidopsis thaliana; Backbone pTREXdest30; also called CPC-Renilla; source: HEK293TM cells, transiently expressed, in lysate; not shown: Renilla reniformis luciferase (Rluc), N-terminal, kept
B4: Renilla-tagged GLABRA1 (GL1) (natural protein, Arabidopsis thaliana, UniProt P27900 1-228, looked up)
chain: MRIRRRDEKENQEYKKGLWTVEEDNILMDYVLNHGTGQWNRIVRKTGLKRCGKSCRLRWMNYLSPNVNKGNFTEQEEDLIIRLHKLLGNRWSLIAKRVPGRTDNQVKNYWNTHLSKKLVGDYSSAVKTTGEDDDSPPSLFITAATPSSCHHQQENIYENIAKSFNGVVSASYEDKPKQELAQKDVLMATTNDPSHYYGNNALWVHDDDFELSSLVMMNFASGDVEYCL
notes: GLABRA1 (GL1), R2R3MYB, Arabidopsis thaliana; Backbone pTREXdest30; also called GL1-Renilla; GL1Renilla; source: HEK293TM cells, transiently expressed, in lysate; not shown: Renilla reniformis luciferase (Rluc), N-terminal, kept

For this assay, the target named is T1, ProtA-tagged GLABRA3 (GL3). The assay can be described thus: pull-down; LUMIER pull-down: raw HEK293TM extracts of ProtA-tagged GL3 and a Renilla-tagged protein mixed, dilution series of the ratio, Renilla luminescence on the beads; ratios from HA Western blots; single-site reversible binding model; KD dimensionless and relative to the total GL3 concentration. The conditions noted are these: partners not purified. In general terms: Immunoblotting shows a protein as a band on a membrane.
B1: the “relative KD (KD divided by total GL3)” value is 1 dimensionless, relative to the total GL3 concentration.

As to B2, the “relative KD (KD divided by total GL3)” value was 2.7 dimensionless, relative to the total GL3 concentration.

On to B3, for which the “relative KD (KD divided by total GL3)” value is 2.3 dimensionless, relative to the total GL3 concentration.

As for B4, the “relative KD (KD divided by total GL3)” value is 0.5 dimensionless, relative to the total GL3 concentration.

The record behind these values is paper PMC10948613 (Frontiers in Plant Science, 2024).
